Experimental data as given in the RNAGym collection of RNA variant scans (doi:10.7554/elife.80360).

B1: HDV Ribozyme (parent)
chain: GGCCGGCAUGGUCCCAGCCUCCUCGCUGGCGCCGGCUGGGCAACAUUCCGAGGGGACCGUCCCCUCGGUAAUGGCGAAUGGGACCCA

Variants of: B1
Test: self-cleavage, relative activity (ratio to wild type); higher = more cleavage; co-transcriptional
Variant C13U G76C has a self-cleavage of 0.772.
With C13G C64G the self-cleavage was 0.138.
C13G G38C showed a self-cleavage of 0.0504.
C14A C61A showed a self-cleavage of 0.878.
C14A C15U gave a self-cleavage of 0.192.
With C13G C22G the self-cleavage was 0.131.
In the case of C13G C22A, the self-cleavage is reported as 0.0361.
Work on C14A G29C yielded a self-cleavage of 0.0302.
For C14A G29A, the self-cleavage was 0.115.
C13U A83U showed a self-cleavage of 0.185.
C13U A83G gave a self-cleavage of 0.122.
In the case of C13U C15A, the self-cleavage is reported as 0.482.
With C13A G52U the self-cleavage was 0.225.
Work on C13A G17U yielded a self-cleavage of 0.169.
Variant C13U G28C has a self-cleavage of 0.
Variant C13A U23A has a self-cleavage of 0.138.
C13A U23C showed a self-cleavage of 0.271.
Work on C14A C63G yielded a self-cleavage of 0.935.
C13G A78U gave a self-cleavage of 0.185.
Work on C13G A78G yielded a self-cleavage of 0.111.
Work on C13G U60G yielded a self-cleavage of 0.
Work on C13U G39U yielded a self-cleavage of 0.495.
C13U G17U gave a self-cleavage of 0.612.
C13U G17A showed a self-cleavage of 0.623.
Variant C14A A87U has a self-cleavage of 0.623.
Work on C13G A71G yielded a self-cleavage of 0.
Variant C13G A71U has a self-cleavage of 0.
Variant C14A C57A has a self-cleavage of 0.745.
C13G U27C showed a self-cleavage of 0.262.
C13G A83C showed a self-cleavage of 0.222.
C13G G59U gave a self-cleavage of 0.0811.
In the case of C13G G59A, the self-cleavage is reported as 0.148.
C13G C36U showed a self-cleavage of 0.0369.
In the case of C13G C36A, the self-cleavage is reported as 0.0449.
C13A G31C showed a self-cleavage of 0.
In the case of C13A G31A, the self-cleavage is reported as 0.0594.
C14A A77C gave a self-cleavage of 0.115.
With C13G G82C the self-cleavage was 0.582.
For C13G G82U, the self-cleavage was 0.0361.
Variant C13U G40U has a self-cleavage of 0.117.
In the case of C13U G40C, the self-cleavage is reported as 0.0739.
With C13U A45C the self-cleavage was 0.365.
In the case of C14A C36A, the self-cleavage is reported as 0.
Work on C13A G53C yielded a self-cleavage of 0.133.
C13U C57U gave a self-cleavage of 0.853.
C13G G53C showed a self-cleavage of 0.123.
For C13A U65G, the self-cleavage was 0.208.
C13A U37C showed a self-cleavage of 0.131.
Work on C13G A51C yielded a self-cleavage of 0.0723.
For C13G G52A, the self-cleavage was 0.125.
Variant C13G G52C has a self-cleavage of 0.0475.
Variant C13A U79A has a self-cleavage of 0.119.
For C14A A56U, the self-cleavage was 0.688.
Variant C14A C48G has a self-cleavage of 0.969.
C14A C48A gave a self-cleavage of 0.485.
In the case of C13U G35C, the self-cleavage is reported as 0.166.
Work on C13U G35U yielded a self-cleavage of 0.163.
In the case of C13U G35A, the self-cleavage is reported as 0.272.
With C13U C63A the self-cleavage was 0.542.
C13U C30A gave a self-cleavage of 0.102.
Work on C13U C86G yielded a self-cleavage of 0.692.
Work on C14A A42U yielded a self-cleavage of 0.201.
C14A C75U gave a self-cleavage of 0.
Variant C13A G76A has a self-cleavage of 0.199.
C13U G73C showed a self-cleavage of 0.123.
For C14A A16G, the self-cleavage was 0.776.
Work on C14A A83G yielded a self-cleavage of 0.475.
With C14A C44A the self-cleavage was 0.246.
With C14A G25U the self-cleavage was 0.0652.
Work on C14A G25C yielded a self-cleavage of 0.201.
With C14A C58G the self-cleavage was 0.762.
Variant C13G U37A has a self-cleavage of 0.17.
C13G G80U gave a self-cleavage of 0.0475.
In the case of C13G G80A, the self-cleavage is reported as 0.
C13G G80C showed a self-cleavage of 0.0997.
C14A C64A gave a self-cleavage of 0.793.
For C14A A51C, the self-cleavage was 0.959.
With C13G C21U the self-cleavage was 0.141.
Variant C13G C21G has a self-cleavage of 0.0723.
Variant C13G G39A has a self-cleavage of 0.0332.
With C13U C14A the self-cleavage was 0.155.
With C13U C14G the self-cleavage was 0.391.
C13U A16C showed a self-cleavage of 0.8.
C13G U23C gave a self-cleavage of 0.
Work on C13G U23A yielded a self-cleavage of 0.151.
C13U G82A gave a self-cleavage of 0.997.
C13U G59C showed a self-cleavage of 0.587.
C13U G59U gave a self-cleavage of 0.831.
Work on C13U U65C yielded a self-cleavage of 0.604.
C13U U65G showed a self-cleavage of 0.895.
With C13G A45U the self-cleavage was 0.0346.
With C14A G28C the self-cleavage was 0.142.
C13U C32A gave a self-cleavage of 0.172.
C13U G80U gave a self-cleavage of 0.185.
For C13U G34A, the self-cleavage was 0.0875.
Variant C13U G52A has a self-cleavage of 0.682.
With C13U G52U the self-cleavage was 0.394.
C13A G68U gave a self-cleavage of 0.125.
Work on C14A C85A yielded a self-cleavage of 0.623.
C13G C24U showed a self-cleavage of 0.0504.
With C13G C24A the self-cleavage was 0.0594.
C13U G81C showed a self-cleavage of 0.249.
Work on C13G G29C yielded a self-cleavage of 0.0415.
C13U C66A gave a self-cleavage of 0.54.
Variant C13U G53A has a self-cleavage of 0.77.
In the case of C13U G50U, the self-cleavage is reported as 0.642.
C13G C61G gave a self-cleavage of 0.0852.
C13G U46G gave a self-cleavage of 0.0554.
In the case of C13G U46C, the self-cleavage is reported as 0.18.
C13G C49U gave a self-cleavage of 0.
In the case of C13A C86U, the self-cleavage is reported as 0.242.
Variant C14A C21U has a self-cleavage of 0.151.
In the case of C13A G50C, the self-cleavage is reported as 0.283.
With C13G U72A the self-cleavage was 0.0536.
For C13U U69C, the self-cleavage was 0.88.
In the case of C13A G81C, the self-cleavage is reported as 0.
With C13A G28A the self-cleavage was 0.0875.
C13A G28U gave a self-cleavage of 0.172.
For C13G A56C, the self-cleavage was 0.0489.
Variant C13G C63G has a self-cleavage of 0.133.
Variant C13U U23C has a self-cleavage of 0.415.
For C14A C86U, the self-cleavage was 0.9.
With C14A C86G the self-cleavage was 0.378.
C13U G68A showed a self-cleavage of 0.502.
Work on C13G G50U yielded a self-cleavage of 0.0426.
Variant C13U A78U has a self-cleavage of 0.
C13U G55U showed a self-cleavage of 0.598.
C14A C66G showed a self-cleavage of 0.57.
Variant C14A C66A has a self-cleavage of 0.578.
Work on C14A G31A yielded a self-cleavage of 0.121.
Work on C13G U69G yielded a self-cleavage of 0.111.
C13G C33G gave a self-cleavage of 0.0462.
With C13G G76A the self-cleavage was 0.
In the case of C13A G39C, the self-cleavage is reported as 0.0554.
Variant C13U U79C has a self-cleavage of 0.103.
Work on C13U U79G yielded a self-cleavage of 0.0519.
C14A C41G showed a self-cleavage of 0.554.
With C14A C41A the self-cleavage was 0.734.
With C13G C86U the self-cleavage was 0.151.
In the case of C13G G74C, the self-cleavage is reported as 0.128.
Work on C13G C62A yielded a self-cleavage of 0.0692.
C13A C85A showed a self-cleavage of 0.19.
In the case of C14A A45C, the self-cleavage is reported as 0.199.
Work on C13G C18G yielded a self-cleavage of 0.138.
Work on C13G C18U yielded a self-cleavage of 0.0875.
In the case of C13U C75U, the self-cleavage is reported as 0.0314.
C13U C75A showed a self-cleavage of 0.148.
C13A G29C showed a self-cleavage of 0.
For C13G G25A, the self-cleavage was 0.
Variant C14A C30A has a self-cleavage of 0.104.
C14A C30G showed a self-cleavage of 0.
With C13G A70U the self-cleavage was 0.123.
C13A G59C gave a self-cleavage of 0.237.
Work on C13G G67U yielded a self-cleavage of 0.101.
Work on C13G U65A yielded a self-cleavage of 0.101.
C13G U65C gave a self-cleavage of 0.095.
C13G C19G showed a self-cleavage of 0.0791.
C13A G35U gave a self-cleavage of 0.125.
C14A C22A showed a self-cleavage of 0.0692.
With C13U G31U the self-cleavage was 0.185.
In the case of C13G G17A, the self-cleavage is reported as 0.0652.
For C13U G67U, the self-cleavage was 0.712.
C13G C26A gave a self-cleavage of 0.35.
In the case of C13G C26G, the self-cleavage is reported as 0.0978.
C14A G17U showed a self-cleavage of 0.199.
For C13U C61U, the self-cleavage was 0.77.
With C13U C61A the self-cleavage was 0.47.
